Two molecules from US20070128190A1 (GLENMARK PHARMACEUTICALS S A, published 2007) can be followed below.

For orientation: Ki means a dissociation constant, usually derived from enzyme kinetics or from competition with a known ligand. For orientation: koff means the first-order rate constant of dissociation. A lower koff goes with a long-lived complex. Broadly, the kon is the second-order rate constant of association. A lower kon goes with slow association.

Assay [1] deals with T1, human platelet α2β1 integrin (immobilized on microtiter plates) (human, UniProt P17301 30-1181; P05556 21-798).
T1 construct: plates custom-coated with human platelet α2β1 by GTI Inc; also called immobilized α2β1 integrin; α2β1-coated plates
Briefly: competition with Eu-TMC-2206 on platelet α2β1-coated plates.

The target in assay [2] is T2, GST-human α2 I domain fusion protein (human, UniProt P17301 153-368).
T2 construct: the reverse primer ends at ...SIEGTV; also called GST-α2 I domain; hα2I; not shown: glutathione S-transferase tag encoded by vector pGEX-2TK
T2 sequence: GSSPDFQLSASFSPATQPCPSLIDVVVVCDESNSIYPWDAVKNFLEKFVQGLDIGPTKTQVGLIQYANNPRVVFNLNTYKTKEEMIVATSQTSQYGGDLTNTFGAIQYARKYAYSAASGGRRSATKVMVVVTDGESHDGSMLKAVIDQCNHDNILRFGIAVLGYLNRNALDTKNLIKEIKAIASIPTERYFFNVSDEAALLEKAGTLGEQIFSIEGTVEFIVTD
Briefly: ELISA, GST fusion protein on immobilized TMC-2206 (Kd apparent). The procedure: (§1) The fusion proteins were then expressed and purified as described above for the human GST-α2 I domain fusion protein. […] Therefore, these and the primate fusion proteins were further purified by size exclusion chromatography on a Sephadex 75 10/30 (GE-Amersham) column (primate) by FPLC on an Akta-Basic FPLC system (GE-Amersham) to yield a monomeric fraction. […] The Kᵢ assays were performed as described above in Example 2. […] Plates were sealed and coating occurred overnight at 4° C. The next morning, the plates were washed twice with TBS solution and then blocked using 200 μL of the blocking solution described above for 1 hour at room temperature with shaking. After blocking, the blocking solution was removed but the wells were not washed. Instead, a serial dilution of GST fusion protein was made, added to the wells and then incubated for 2 hours at room temperature with shaking. The wells were then aspirated and a TBS washing buffer applied for 5 minutes at room temperature. The washing step was repeated twice more before the secondary antibody was applied. The secondary antibody step consisted of Amersham's HRP-conjugated rabbit anti-GST antibody diluted 1:2000 in blocking buffer. One hundred μL of secondary antibody was added to each well and incubated at room temperature for 1.5 hours with shaking. The wells were again aspirated and washed three times with wash buffer before adding the substrate reaction mixture. One hundred μL of substrate reaction mixture (1:1 dilution of TMB kit) was then added to each well for 6 minutes. The reaction was stopped by adding 100 μL of 0.1M H₂SO₄. The reaction within the wells was then read and quantified by spectrophotometric absorption using the Molecular Dynamics plate reader and associated Softmax software, respectively. Kd values were then estimated from the EC₅₀ values using Prism software (Graphpad, Calif.).

For another assay, the target named is T3, GST-hα2 I domain K78E (human, UniProt P08515 1-218 = GST).
T3 construct: same construct as m41
The assay is described as above. The procedure: as §1

Assay [3] concerns the target T1, human platelet α2β1 integrin …. Briefly: equilibrium binding of Eu-TMC-2206 to human platelet α2β1-coated plate, Scatchard. The procedure: Wells in a 96 well microtiter plate were coated with platelet α2β1-integrin (custom-coated with human platelet α2β1 by GTI Inc., Wis.) and then blocked with nonfat milk. […] After concentration in prewashed MicroSep concentrators (30-kDa cutoff; Pall Life Sciences at 9500 rpm (7000×g) in a JA-20 rotor (Beckman Instruments, Inc.) for 20 minutes at 4° C.), antibodies were adjusted to 4.0 mg/mL with PBS containing a final concentration of 100 mM NaHCO₃, pH 9.3. The mAb/bicarbonate mixture (0.250 mL) was gently mixed into a vial containing 0.2 mg N¹-(p-isothiocyanatobenzyl)-diethylenetriamine-N¹,N²,N³N³-tetraacetic acid chelated with Eu³⁺ (Eu-N1-ITC; Perkin Elmer Life Sciences) and reacted overnight at 4° C. without stirring. Each labeled antibody mixture was applied to a separate PD-10 column (GE Biosciences, Piscataway, N.J.) pre-equilibrated with Running Buffer (50 mM Tris, pH 7.4 and 138 mM NaCl). Fractions (0.5 mL) were collected and assayed for total protein (Bradford reagent; Bio-Rad Laboratories, Hercules, Calif.) using a SpectraMax 384 absorbance plate reader and for europium after 1:10.000 dilution in DELFIA Enhancement Solution (Perkin-Elmer) by time-resolved fluorescence (TRF) using a Victor2 multi-label plate reader (Perkin Elmer). […]

The target in assay [4] is T4, GST-cynomolgus α2 I domain fusion protein of Example 18 (sequence identical to the human I domain) (cynomolgus monkey, UniProt P17301 153-368 (human entry)).
T4 construct: also called GST-cynomolgous-α2 I domain fusion protein; not shown: glutathione S-transferase tag, vector not restated
T4 sequence: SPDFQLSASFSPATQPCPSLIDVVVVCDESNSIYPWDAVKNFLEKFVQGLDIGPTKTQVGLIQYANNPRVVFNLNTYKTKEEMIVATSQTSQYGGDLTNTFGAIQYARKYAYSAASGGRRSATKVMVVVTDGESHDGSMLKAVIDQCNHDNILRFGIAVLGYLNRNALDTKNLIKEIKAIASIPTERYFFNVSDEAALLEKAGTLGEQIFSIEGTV
Briefly: SPR (Biacore 2000), antibody captured, GST-α2 I domain in solution. (SPR reads the build-up and loss of mass on a sensor chip optically.)

T1 sequence (P17301 30-1181 E534K limits assumed, chain 1 of 2): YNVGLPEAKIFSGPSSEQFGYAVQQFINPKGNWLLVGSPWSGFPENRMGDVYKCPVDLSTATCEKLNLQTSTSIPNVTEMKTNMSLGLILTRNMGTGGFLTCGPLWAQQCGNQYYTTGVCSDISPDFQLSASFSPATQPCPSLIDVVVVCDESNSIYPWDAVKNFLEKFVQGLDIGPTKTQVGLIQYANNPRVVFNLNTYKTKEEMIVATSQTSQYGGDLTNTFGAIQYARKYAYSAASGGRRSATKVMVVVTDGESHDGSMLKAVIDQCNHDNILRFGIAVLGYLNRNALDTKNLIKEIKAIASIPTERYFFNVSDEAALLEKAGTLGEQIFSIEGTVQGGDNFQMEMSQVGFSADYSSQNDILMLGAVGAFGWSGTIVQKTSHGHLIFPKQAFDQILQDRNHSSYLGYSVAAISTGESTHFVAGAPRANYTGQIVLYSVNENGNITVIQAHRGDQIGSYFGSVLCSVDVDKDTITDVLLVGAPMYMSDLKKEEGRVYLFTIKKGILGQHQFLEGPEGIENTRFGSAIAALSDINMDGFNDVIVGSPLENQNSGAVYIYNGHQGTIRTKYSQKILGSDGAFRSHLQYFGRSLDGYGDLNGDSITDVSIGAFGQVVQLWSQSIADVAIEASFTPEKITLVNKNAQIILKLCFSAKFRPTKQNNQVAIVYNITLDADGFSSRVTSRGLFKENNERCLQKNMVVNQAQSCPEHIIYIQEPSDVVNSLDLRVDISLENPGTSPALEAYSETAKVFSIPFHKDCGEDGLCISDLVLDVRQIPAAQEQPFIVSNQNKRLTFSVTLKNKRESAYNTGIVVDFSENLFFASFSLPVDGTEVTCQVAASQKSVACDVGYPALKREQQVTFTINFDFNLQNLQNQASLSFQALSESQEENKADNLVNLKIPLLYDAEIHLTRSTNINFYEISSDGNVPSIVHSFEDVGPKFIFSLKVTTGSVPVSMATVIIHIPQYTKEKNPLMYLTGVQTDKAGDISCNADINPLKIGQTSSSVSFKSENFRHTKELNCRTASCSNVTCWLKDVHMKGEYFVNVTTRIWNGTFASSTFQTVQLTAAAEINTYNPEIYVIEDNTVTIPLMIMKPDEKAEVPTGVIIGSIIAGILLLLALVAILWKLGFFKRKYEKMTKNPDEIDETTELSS
T1 sequence (P05556 21-798 limits assumed, chain 2 of 2): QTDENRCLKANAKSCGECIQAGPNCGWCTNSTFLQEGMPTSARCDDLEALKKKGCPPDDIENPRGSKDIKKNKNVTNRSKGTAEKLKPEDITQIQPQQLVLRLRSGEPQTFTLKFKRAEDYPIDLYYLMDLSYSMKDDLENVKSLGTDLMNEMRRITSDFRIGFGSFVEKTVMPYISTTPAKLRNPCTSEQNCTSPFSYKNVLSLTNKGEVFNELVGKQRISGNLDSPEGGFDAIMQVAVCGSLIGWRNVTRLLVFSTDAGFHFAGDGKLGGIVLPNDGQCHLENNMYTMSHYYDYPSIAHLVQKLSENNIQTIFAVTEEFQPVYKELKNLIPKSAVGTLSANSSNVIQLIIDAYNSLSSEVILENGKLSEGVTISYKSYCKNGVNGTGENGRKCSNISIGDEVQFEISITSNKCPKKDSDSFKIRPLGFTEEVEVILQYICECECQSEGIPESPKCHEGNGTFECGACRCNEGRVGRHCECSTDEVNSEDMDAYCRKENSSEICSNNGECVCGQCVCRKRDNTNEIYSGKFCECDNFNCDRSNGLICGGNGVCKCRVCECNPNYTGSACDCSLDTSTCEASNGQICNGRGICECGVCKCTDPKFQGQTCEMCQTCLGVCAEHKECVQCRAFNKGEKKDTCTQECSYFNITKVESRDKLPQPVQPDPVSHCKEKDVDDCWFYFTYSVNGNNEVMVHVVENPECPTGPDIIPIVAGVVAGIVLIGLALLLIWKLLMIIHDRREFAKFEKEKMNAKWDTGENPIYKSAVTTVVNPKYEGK

B1: TMC-2206 (antibody, mouse IgG1, V domains shown)
VH: QVQLKESGPGLVAPSQSLSITCTVSGFSLTNYGIHWVRQPPGKGLEWLGVIWARGFTNYNSALMSRLIITKDNSQSQVFLKMNSLQPDDSATYFCARANDGVYYAMDYWGQGTSVTVSS
VL: QFVLTQSPAFLSASPGEKVTMTCSANSSVNYIHWYQQKSGTSPKKWIYDTSKLASGVPVRFSGSGSGTSYSLTISSMETEDAATYYCQQWTTNPLTFGAGTRVELK
notes: murine IgG1/κ secreted by hybridoma BHA2.1; labelled with Eu-N1-ITC where used as tracer; also called BHA2.1
In assay [1], B1 showed a Ki of 0.11 nM. Besides, the Kd in assay [2] was determined as 0.31 nM; with GST-hα2 I domain K78E it was 0.16 nM; in assay [3] it was 0.374 nM.

B2: Humanized TMC-2206 (hIgG4/κ VH12.0/VL10.0Q) (antibody)
heavy: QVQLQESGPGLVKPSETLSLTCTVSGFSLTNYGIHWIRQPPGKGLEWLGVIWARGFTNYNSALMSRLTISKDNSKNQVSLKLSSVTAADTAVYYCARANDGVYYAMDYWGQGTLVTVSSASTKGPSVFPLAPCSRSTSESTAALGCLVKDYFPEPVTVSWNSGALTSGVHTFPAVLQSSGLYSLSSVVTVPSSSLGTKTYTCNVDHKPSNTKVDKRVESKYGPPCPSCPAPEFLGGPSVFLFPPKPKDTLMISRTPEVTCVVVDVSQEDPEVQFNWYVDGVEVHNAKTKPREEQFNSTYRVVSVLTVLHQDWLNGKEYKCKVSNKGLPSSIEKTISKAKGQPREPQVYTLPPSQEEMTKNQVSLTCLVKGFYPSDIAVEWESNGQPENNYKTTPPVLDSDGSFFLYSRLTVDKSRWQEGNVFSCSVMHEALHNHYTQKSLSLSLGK
light: DFVMTQSPAFLSVTPGEKVTITCSAQSSVNYIHWYQQKPDQAPKKLIYDTSKLASGVPSRFSGSGSGTDYTFTISSLEAEDAATYYCQQWTTNPLTFGQGTKVEIKRTVAAPSVFIFPPSDEQLKSGTASVVCLLNNFYPREAKVQWKVDNALQSGNSQESVTEQDSKDSTYSLSSTLTLSKADYEKHKVYACEVTHQGLSSPVTKSFNRGEC
notes: labelled with Eu or Alexa-488 in some assays
Take B2: in assay [4], the Kd is 5 nM, the koff turned out to be 0.003 s⁻¹ and the kon came out at 500000 M⁻¹ s⁻¹.
